In patent US20090111753A1, “Nogo-A Polypeptide Fragments, Variant Nogo Receptor-1 Polypeptides, and Uses Thereof” (Yale University, priority 2004, published 2009):

T1: AP-Nogo66 (Homo sapiens, UniProt Q9NQC3)
T1 construct: made in house; NgR mutants: COS-7
T1 sequence (Q9NQC3 1055-1120 limits assumed): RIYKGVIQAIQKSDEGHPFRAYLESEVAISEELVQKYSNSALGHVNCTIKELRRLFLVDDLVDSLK

T2: AP-B4C (Homo sapiens, UniProt Q9NQC3)
T2 construct: a.a; 950-1018 (AmNg B4C); made in house; host or cells: AP ligand: HEK293T conditioned medium; NgR mutants: COS-7
T2 sequence (Q9NQC3 950-1018): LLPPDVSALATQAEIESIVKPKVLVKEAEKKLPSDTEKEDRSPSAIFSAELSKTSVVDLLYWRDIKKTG

T3: AP-Lingo-1 (Homo sapiens, UniProt Q96FE5)
T3 construct: made in house; NgR mutants: COS-7
T3 sequence (Q96FE5 40-538 limits assumed): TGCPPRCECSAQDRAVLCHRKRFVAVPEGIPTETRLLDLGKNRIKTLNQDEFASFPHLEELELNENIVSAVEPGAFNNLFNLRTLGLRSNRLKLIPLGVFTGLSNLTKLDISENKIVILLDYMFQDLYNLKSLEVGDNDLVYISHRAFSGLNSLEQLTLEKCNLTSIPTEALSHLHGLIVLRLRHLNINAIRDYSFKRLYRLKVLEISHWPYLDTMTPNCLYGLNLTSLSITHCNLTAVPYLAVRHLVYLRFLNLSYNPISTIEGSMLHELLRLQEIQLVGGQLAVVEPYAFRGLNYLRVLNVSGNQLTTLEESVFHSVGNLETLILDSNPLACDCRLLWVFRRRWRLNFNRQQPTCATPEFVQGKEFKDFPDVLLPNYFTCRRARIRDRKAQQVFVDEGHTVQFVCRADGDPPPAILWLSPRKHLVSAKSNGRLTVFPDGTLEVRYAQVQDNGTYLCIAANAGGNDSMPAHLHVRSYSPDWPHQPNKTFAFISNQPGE


How the values were obtained:
NgR ligands = assay: Binding of alanine substituted NgR mutants to NgR ligands, summary categories; details: AP-Nogo66, AP-B4C, AP-B4C66, AP-Lingo-1, AP-OMgp and AP-MAG; compared to wild type NgR
Excerpt: (§1) To better define how multiple ligands bind to the NgR protein, we examined a series of Ala-substituted NgR for ligand binding activity. NgR mutagenesis was done using the Quick Change Multisite Directed Mutagenesis Kit (Stratagene catalog #200514). Human NgR1 was used as a template. Ala substitutions were generated for each of the charged residues predicted to be solvent accessible at the surface of the ligand binding domain of NgR (Barton, W. A., et al., Embo J. 22:3291-3302 (2003); He, X. L., et al., Neuron 38:177-185 (2003)). We generated mutants in which 1-8 surface residues localized within 5 A of one another were Ala-substituted. Because of the coiling nature of the LRR structure, as residues juxtaposed on the protein surface are commonly separated by approximately 25 residues in the primary structure. In addition to mutations in specific charged surface patches, other mutations were targeted to glycosylation sites and to regions predicted to be involved in ligand binding based on the NgR structure (Barton, W. A., et al., Embo J. 22:3291-3302 (2003); He, X. L., et al., Neuron 38:177-185 (2003)). In addition, a variant corresponding to a human polymorphism was examined (D259N). None of the mutations altered the Leu residues that define the LRR structure itself or the Cys residues critical in the amino and carboxyl terminal capping domains. The vast majority of such Ala surface substitution mutants were expressed as immunoreactive polypeptides with a molecular weight and an expression level indistinguishable from wild type NgR (FIG. 4C and data not shown).
(§2) This collection of 74 individual NgR mutants was interrogated for AP-Nogo-66, AP-Amino-Nogo-B4C, AP-MAG, AP-OMgp, and AP-Lingo-1 binding. AP-Nogo66, AP-MAG, AP-OMGP and AP-Lingo-1 constructs are described elsewhere (Fournier, A. E., et al., Nature 409:341-346 (2001); Liu, B. P., et al., Science 297:1190-1193 (2002); Mi, S., et al., Nat. Neurosci. 7:221-228 (2004); Wang, K. C., et al., Nature 417:941-944 (2002b)). The properties of the NgR mutants fell into one of three major categories (Table II and FIG. 5). A number of Ala substituted NgR polypeptides bound all of the ligands at wild type levels. […] In addition, a significant extent of the concave surface is dispensable for ligand binding.
Alanine substituted NgR mutants were tested for their binding to AP-Nogo66, AP-B4C, AP-B4C66, AP-Lingo-1, AP-OMgp and AP-MAG and they fall into three categories: (1) Mutants that lose binding to all NgR ligands. (2) Mutants that still maintain binding to all NgR ligands. […] The D259N mutant is an asparagine substitution to mimic a human polymorphism.

AP-Nogo66 = molecular target: T1, AP-Nogo66; assay: Binding of AP-Nogo66 to COS-7 cells expressing NgR mutants; parameters: key: ++: WT level; +: weaker than wild type; trace binding; −: no binding; details: AP-Ng66 5 nM; level of binding compared to wild type NgR
Procedure: (§3) FIG. 4A. […] Binding of AP or AP fused NgR ligands to COS-7 cells expressing different NgR mutants as indicated. The concentrations of ligands applied were: AP, 30 nM; AP-Ng66, 5 nM; AP-Ng33, 10 nM; AP-B4C, 10 nM; AP-B4C66, 0.5 nM; AP-Lingo-1, 10 nM; AP-OMGP, 10 nM; AP-MAG, 30 nM. These concentrations are close to the binding Kd of these proteins to NgR so that any […] is reflected linearly in staining.
(§4) FIG. 4B. AP binding of NgR ligands to NgR mutants expressed as percentage of wild type NgR. AP after incubation with AP fused ligands, AP bound to COS-7 cells expressing NgR or NgR mutants were stained and measured.
as §1, §2
(§5) Binding of Alanine substituted NgR mutants to NgR ligands were compared to wild type NgR and the levels of binding were categorized as ++ (WT level), + (weaker than wild type), tr (trace binding), − (no binding), N/A (not determined). NgR mutant proteins were also subjected to SDS-PAGE and probed by anti-NgR antibodies. Mutants with expression level similar to WT NgR were labeled as “y”.

AP-B4C = molecular target: T2, AP-B4C; assay: Binding of AP-B4C to COS-7 cells expressing NgR mutants; parameters: key: ++: WT level; +: weaker than wild type; trace binding; −: no binding; details: AP-B4C 10 nM; level of binding compared to wild type NgR
Procedure: as §3, §4, §1, §2, §5

AP-B4C66 = assay: Binding of AP-B4C66 to COS-7 cells expressing NgR mutants; parameters: key: ++: WT level; +: weaker than wild type; trace binding; −: no binding; details: AP-B4C66 0.5 nM; level of binding compared to wild type NgR
Procedure: as §3, §4, §1, §2, §5

AP-Lingo-1 = molecular target: T3, AP-Lingo-1; assay: Binding of AP-Lingo-1 to COS-7 cells expressing NgR mutants; parameters: key: ++: WT level; +: weaker than wild type; trace binding; −: no binding; details: AP-Lingo-1 10 nM; level of binding compared to wild type NgR
Procedure: as §3, §4, §1, §2, §5

AP-OMgp = assay: Binding of AP-OMgp to COS-7 cells expressing NgR mutants; parameters: key: ++: WT level; +: weaker than wild type; trace binding; −: no binding; details: AP-OMGP 10 nM; level of binding compared to wild type NgR
Procedure: as §3, §4, §1, §2, §5

AP-MAG = assay: Binding of AP-MAG to COS-7 cells expressing NgR mutants; parameters: key: ++: WT level; +: weaker than wild type; trace binding; −: no binding; details: AP-MAG 30 nM; level of binding compared to wild type NgR
Procedure: as §3, §4, §1, §2, §5

Molecule | ligand binding category of NgR mutant (Table II) (NgR ligands) | Ng66 (AP-Nogo66) | B4C (AP-B4C) | Lingo-1 (AP-Lingo-1) | B4C-66 (AP-B4C66) | OMgp (AP-OMgp) | MAG (AP-MAG)
36, 38, 61: human NgR1 mutant, listed residues mutated to alanine (protein) CPGACVCYNAPAVTTSCPQQGLQAVPVGIPAASQAIFLHGNRISHVPAASFRACRNLTILWLHSNVLARIDAAAFTGLALLEQLDLSDNAQLRSVDPATFHGLGRLHTLHLDRCGLQELGPGLFRGLAALQYLYLQDNALQALPDDTFRDLGNLTHLFLHGNRISSVPERAFRGLHSLDRLLLHQNRVAHVHPHAFRDLGRLMTLYLFANNLSALPTEALAPLRALQYLRLNDNPWVCDCRARPLWAWLQKFRGSSSEVPCSLPQRLAGRDLKRLAANDLQGCAVATGPYHPIWTGRATDEEPLGLPKCCQPDAADKASVLEPGRPASAGNALKGRVPPGDSPPGNGSGPRHINDSPFGTLPGSAEPPLTAVRPEGSEPPGFPTSGPRRRPGCSRKNRTRSHCRLGQAGSGGGGTGDSEGSGALPSLTCSLTPLGLALVLWTVLGPC | Differential binding | + | ++ | tr | ++ | + | tr
114, 117, 139: human NgR1 mutant, listed residues mutated to alanine (protein) CPGACVCYNEPKVTTSCPQQGLQAVPVGIPAASQRIFLHGNRISHVPAASFRACRNLTILWLHSNVLARIDAAAFTGLALLEQLDLSANAALRSVDPATFHGLGRLHTLHLDACGLQELGPGLFRGLAALQYLYLQDNALQALPDDTFRDLGNLTHLFLHGNRISSVPERAFRGLHSLDRLLLHQNRVAHVHPHAFRDLGRLMTLYLFANNLSALPTEALAPLRALQYLRLNDNPWVCDCRARPLWAWLQKFRGSSSEVPCSLPQRLAGRDLKRLAANDLQGCAVATGPYHPIWTGRATDEEPLGLPKCCQPDAADKASVLEPGRPASAGNALKGRVPPGDSPPGNGSGPRHINDSPFGTLPGSAEPPLTAVRPEGSEPPGFPTSGPRRRPGCSRKNRTRSHCRLGQAGSGGGGTGDSEGSGALPSLTCSLTPLGLALVLWTVLGPC | Differential binding | + | + | − | + | − | −
95, 97, 122: human NgR1 mutant, listed residues mutated to alanine (protein) CPGACVCYNEPKVTTSCPQQGLQAVPVGIPAASQRIFLHGNRISHVPAASFRACRNLTILWLHSNVLAAIAAAAFTGLALLEQLDLSDNAQLRSVAPATFHGLGRLHTLHLDRCGLQELGPGLFRGLAALQYLYLQDNALQALPDDTFRDLGNLTHLFLHGNRISSVPERAFRGLHSLDRLLLHQNRVAHVHPHAFRDLGRLMTLYLFANNLSALPTEALAPLRALQYLRLNDNPWVCDCRARPLWAWLQKFRGSSSEVPCSLPQRLAGRDLKRLAANDLQGCAVATGPYHPIWTGRATDEEPLGLPKCCQPDAADKASVLEPGRPASAGNALKGRVPPGDSPPGNGSGPRHINDSPFGTLPGSAEPPLTAVRPEGSEPPGFPTSGPRRRPGCSRKNRTRSHCRLGQAGSGGGGTGDSEGSGALPSLTCSLTPLGLALVLWTVLGPC | Differential binding | + | + | − | + | tr | tr

Second part, led by results:

ligand binding category of NgR mutant (Table II) (NgR ligands) | Ng66 (AP-Nogo66) | B4C (AP-B4C) | Lingo-1 (AP-Lingo-1) | Molecule | B4C-66 (AP-B4C66) | OMgp (AP-OMgp) | MAG (AP-MAG)
Differential binding | ++ | ++ | ++ | 256, 259: human NgR1 mutant, listed residues mutated to alanine (protein) CPGACVCYNEPKVTTSCPQQGLQAVPVGIPAASQRIFLHGNRISHVPAASFRACRNLTILWLHSNVLARIDAAAFTGLALLEQLDLSDNAQLRSVDPATFHGLGRLHTLHLDRCGLQELGPGLFRGLAALQYLYLQDNALQALPDDTFRDLGNLTHLFLHGNRISSVPERAFRGLHSLDRLLLHQNRVAHVHPHAFRDLGRLMTLYLFANNLSALPTEALAPLRALQYLALNANPWVCDCRARPLWAWLQKFRGSSSEVPCSLPQRLAGRDLKRLAANDLQGCAVATGPYHPIWTGRATDEEPLGLPKCCQPDAADKASVLEPGRPASAGNALKGRVPPGDSPPGNGSGPRHINDSPFGTLPGSAEPPLTAVRPEGSEPPGFPTSGPRRRPGCSRKNRTRSHCRLGQAGSGGGGTGDSEGSGALPSLTCSLTPLGLALVLWTVLGPC | ++ | + | −
 | ++ | ++ | ++ | WT: wild type human NgR1 expressed in COS-7 cells (protein, UniProt Q9BZR6 27-447, looked up) Reticulon-4 receptor: CPGACVCYNEPKVTTSCPQQGLQAVPVGIPAASQRIFLHGNRISHVPAASFRACRNLTILWLHSNVLARIDAAAFTGLALLEQLDLSDNAQLRSVDPATFHGLGRLHTLHLDRCGLQELGPGLFRGLAALQYLYLQDNALQALPDDTFRDLGNLTHLFLHGNRISSVPERAFRGLHSLDRLLLHQNRVAHVHPHAFRDLGRLMTLYLFANNLSALPTEALAPLRALQYLRLNDNPWVCDCRARPLWAWLQKFRGSSSEVPCSLPQRLAGRDLKRLAANDLQGCAVATGPYHPIWTGRATDEEPLGLPKCCQPDAADKASVLEPGRPASAGNALKGRVPPGDSPPGNGSGPRHINDSPFGTLPGSAEPPLTAVRPEGSEPPGFPTSGPRRRPGCSRKNRTRSHCRLGQAGSGGGGTGDSEGS | ++ | ++ | ++
